Experimental data published in patent publication US20080227700A1, “Compositions and Methods for Treatment of Protein Misfolding and Protein Aggregation Diseases” (priority 2004, published 2008).

target: beta amyloid (Homo sapiens, UniProt P05067); test: αB crystallin protein pin array screened for binding to beta amyloid; details: immobilized 8-mer peptide; absorption at 450 nm; assayed 2-5 times
Description: αB Crystallin peptides that bind the target protein beta-amyloid were identified by screening an αB crystallin protein pin array, which provides a systematic method for evaluating interactions between peptides corresponding to residues 1-175 of human αB crystallin and selected target proteins in a parallel and simultaneous manner.
Peptides were synthesized on derivatized polyethylene pins arranged in a microtiter plate format. Each peptide was 8 amino acids in length and consecutive peptides were offset by 2 amino acids. All peptides were covalently bonded to the surface plastic pins. The first immobilized peptide was 1MDIAIHHP8 and the last peptide was 168PAVTAAPK175 for the human αB crystallin.
After synthesis, the pins were pre-coated at room temperature with 2% Bovine Serum Albumin (BSA), 0.1% Tween-20 and 0.1% Sodium azide in 10 mM phosphate buffered saline pH 7.2 (PBS) for 1 hr, and washed three times for 10 mins each with 10 mM PBS. To screen for binding to the peptides, fixed concentrations of the target protein beta amyloid was dissolved in 10 mM PBS, containing 0.05% Tween-20, added to each well and incubated for 1 hr at room temperature. The pin array was washed three times for 10 mins each with 10 mM PBS, containing 0.05% Tween-20. Monoclonal or polyclonal primary antibodies for the target protein beta amyloid was diluted into PBS buffer, added to each well and incubated for 1 hr at room temperature. Subsequently, the pin array was washed three times for 10 mins each with 10 mM PBS containing 0.05% Tween-20. Anti-rabbit horse-radish peroxidase conjugate secondary antibodies was diluted into PBS buffer, added to each well and incubated for 1 hr at room temperature. The pin array was washed three times for 10 mins each with 10 mM PBS containing 0.05% Tween-20. A chromogenic substrate of horse-radish peroxidase 3,3′,5,5′-Tetramethylbenzidine (TMB) (Pharmingen, San Diego, Calif.) which is colorless was added, and the reaction was carried out for 45 min.
The reaction was stopped by adding 6N sulfuric acid, which changes the color from blue to yellow. The absorption at 450 nm was measured by an ELISA reader (BioTek, Winooski, Vt.).
The pin array was regenerated by sonication in a water bath (VWR Aquasonic, West Chester, Pa.) with 100 mM PBS, containing 1% Sodium dodecyl sulfate (SDS) and 0.1% 2-Mercaptoethanol @ 60° C. for 10 mins. Next, the pin array was rinsed three times in deionized water, preheated to 60° C. for 30 secs each time, and shaken in water preheated at 60° C. for 30 min. The pin array was then washed with methanol at 60° C. for 15 secs and air-dried and stored @−20° C. for future use. Each target protein was assayed 2-5 times against the human αB crystallin protein pin array peptides to verify the reproducibility of the results. Peptides numbered 5, 7, 8, 9, 13, 19, 22, 23, 24, 27, 35, 38, 45, 51, 52, 56, 57, 61, 66, 71, 72, and 79 in Table 2 reproducibly tested positive in the protein pin assay.

Sequence	protein pin assay result with target protein beta amyloid
FYLRPPSF [Peptide 24]	positive
SPFYLRPP [Peptide 23]	positive
FISREFHR [Peptide 57]	positive
RTIPITRE [Peptide 79]	positive
FPFHSPSR [Peptide 8]	positive
HGFISREF [Peptide 56]	positive
WIRRPFFP [Peptide 5]	positive
SFLRAPSW [Peptide 27]	positive
RLEKDRFS [Peptide 35]	positive
GVLTVNGP [Peptide 71]	positive
LTITSSLS [Peptide 66]	positive
HGKHEERQ [Peptide 51]	positive
LKVKVLGD [Peptide 45]	positive
LFPTSTSL [Peptide 19]	positive
LTVNGPRK [Peptide 72]	positive
SLSPFYLR [Peptide 22]	positive
PFFPFHSP [Peptide 7]	positive
DQFFGEHL [Peptide 13]	positive
FHSPSRLF [Peptide 9]	positive
KHEERQDE [Peptide 52]	positive
KYRIPADV [Peptide 61]	positive

target: T1, equine alcohol dehydrogenase (ADH) (Equus caballus, UniProt P00327); test: Protein pin array interaction with alcohol dehydrogenase; type: binding; details: ADH as ligand, unheated and pre-heated
T1 construct: purchased
Description: (§1) Synthesis of Pins, binding and detection of peptides binding to ligand proteins. The αB crystallin protein pin array was used to measure the interaction between peptides and chaperone target proteins including bovine βH crystallin, human γD crystallin, equine alcohol dehydrogenase (ADH) and porcine citrate synthase (CS) as described (FIG. 12). Ghosh and Clark, Protein Sci 14: 684-95, 2005.
(§2) Refer to the methods section for detailed protocols. The absorbance corresponding to the blue coloration in each well was measured at λ=450 nm and plotted against the amino acid sequence of the corresponding peptide in that well (FIGS. 13 and 14). Wells containing peptides that have strong interactions with target proteins are dark blue and wells containing peptides that have weak or no interaction with target proteins are light blue or clear.
(§3) The purity of the target proteins used in the pin array assays, bovine βH crystallin, human γD crystallin, equine alcohol dehydrogenase (ADH) and porcine citrate synthase (CS) were determined to be >90% by SDS-PAGE. In addition, primary antibodies for each target protein were specific to that target protein and consequently contaminating proteins that may bind to the peptides will not be detected. Eighty-four sequential and overlapping peptide fragments corresponding to residues 1-175 of human αB crystallin were synthesized employing a simultaneous peptide synthesis strategy developed by Geysen, called Multipin Peptide Synthesis (Mimotopes, San Diego, Calif.). Geysen, Southeast Asian J Trop Med Public Health 21: 523-33, 1990; Chin et al., J Org Chem 62: 538-539, 1997. Peptides were immobilized on derivatized polyethylene pins arranged in a microtiter ELISA plate format. Each peptide was eight amino acids in length and consecutive peptides were offset by two amino acids. All peptides were bound covalently to the surface of the plastic pins. The first peptide was […] for human αB crystallin.
(§4) Ghosh and Clark, Protein Sci 14: 684-95, 2005. […] The intensity of the blue color in the wells was measured at 450 nm using an ELISA plate-reader (BioTek, Winooski, Vt.). The intensity of the blue color (plotted on the X-axis) was a measure of the interaction between αB crystallin peptides (plotted on the Y-axis) and target proteins. To measure the effect of temperature on the interactions between interactive peptides and the target proteins, the target proteins were heated in a water-bath at 45° C. for fifteen minutes prior to use. Pin arrays are unable to differentiate between monomers, dimers or oligomers of target proteins that exist in solution. Instead, pin arrays are very sensitive detectors of interactions between individual peptides and the entire population (monomers, dimers or oligomers) of specific target proteins that may exist in solution under specific conditions. Each target protein was assayed two to five times. A single pin array was used for all experiments and no change in interactions was observed after more than thirty repetitions. The last three peptides of the protein pin array, 163REEKPAVT170, 165EKPAVTAA172, 167PAVTAAPK174, correspond to the epitope (163REEKPAVTAAPKK175) recognized by the primary antibody for human αB crystallin. A positive reaction is observed for these three peptides in the absence of human αB crystallin as the ligand due to direct binding of the anti-human αB crystallin antibody to these three peptides. The loss of efficiency for the pin array was measured using this assay. The loss of efficiency for the pin array was determined to be <5% by after more than 30 assays.
(§5) The Y-axis lists the amino acid sequences of the 8-mer peptides that are immobilized sequentially in a 96-well format. […]

T1 sequence (P00327 whole entry): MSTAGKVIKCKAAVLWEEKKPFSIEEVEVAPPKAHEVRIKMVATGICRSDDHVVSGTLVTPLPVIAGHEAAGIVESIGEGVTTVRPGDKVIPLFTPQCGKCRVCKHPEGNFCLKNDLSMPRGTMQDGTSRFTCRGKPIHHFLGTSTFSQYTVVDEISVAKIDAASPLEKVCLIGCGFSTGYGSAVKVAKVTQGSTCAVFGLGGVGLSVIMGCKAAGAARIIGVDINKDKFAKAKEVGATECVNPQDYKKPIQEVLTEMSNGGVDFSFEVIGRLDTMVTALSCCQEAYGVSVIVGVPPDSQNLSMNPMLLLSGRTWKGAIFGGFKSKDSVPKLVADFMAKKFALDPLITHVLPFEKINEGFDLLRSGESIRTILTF

Sequence	absorbance at λ=450 nm, interaction with ADH
LRPPSFLR [Peptide 25]	Maximum absorbances
RTIPITRE [Peptide 79]	Maximum absorbances
WIRRPFFP [Peptide 5]	Maximum absorbances
RLEKDRFS [Peptide 35]	Maximum absorbances
FFGEHLLE [Peptide 14]	Maximum absorbances
GVLTVNGP [Peptide 71]	Maximum absorbances
LTITSSLS [Peptide 66]	Maximum absorbances
SREFHRKY [Peptide 58]	Maximum absorbances
LFPTSTSL [Peptide 19]	Maximum absorbances
SLSPFYLR [Peptide 22]	Maximum absorbances
PFFPFHSP [Peptide 7]	Maximum absorbances

target: T2, porcine citrate synthase (CS) (Sus scrofa, UniProt P00889); test: Protein pin array interaction with citrate synthase; type: binding; details: CS as target protein, unheated and pre-heated
T2 construct: purchased
T2 sequence (P00889 28-464): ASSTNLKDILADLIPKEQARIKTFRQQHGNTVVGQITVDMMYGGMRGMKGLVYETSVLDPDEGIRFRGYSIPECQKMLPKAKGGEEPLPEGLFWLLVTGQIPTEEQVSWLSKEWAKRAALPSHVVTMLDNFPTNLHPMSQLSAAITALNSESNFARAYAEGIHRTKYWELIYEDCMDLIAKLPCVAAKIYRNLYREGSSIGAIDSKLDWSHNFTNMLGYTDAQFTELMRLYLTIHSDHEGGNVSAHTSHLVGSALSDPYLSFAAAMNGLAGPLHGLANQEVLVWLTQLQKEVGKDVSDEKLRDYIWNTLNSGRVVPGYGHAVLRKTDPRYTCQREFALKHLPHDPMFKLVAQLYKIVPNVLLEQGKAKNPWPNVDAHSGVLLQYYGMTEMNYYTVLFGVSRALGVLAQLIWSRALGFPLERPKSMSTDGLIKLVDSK
Description: as §1, §2, §3, §4, §5

Sequence	absorbance at λ=450 nm, interaction with CS
FYLRPPSF [Peptide 24]	absorbance maxima
LRAPSWFD [Peptide 28]	absorbance maxima
FISREFHR [Peptide 57]	absorbance maxima
RTIPITRE [Peptide 79]	absorbance maxima
FPFHSPSR [Peptide 8]	absorbance maxima
WIRRPFFP [Peptide 5]	absorbance maxima
LTITSSLS [Peptide 66]	absorbance maxima
LTVNGPRK [Peptide 72]	absorbance maxima
SLSPFYLR [Peptide 22]	absorbance maxima

target: T3, γD crystallin (Homo sapiens, UniProt P07320); test: Protein pin array interaction with γD crystallin; type: binding; set-up: purchased; details: unheated γD crystallin; similar peptide sequences with γD crystallin pre-heated at 45° C. for fifteen minutes
T3 sequence (P07320 1-174): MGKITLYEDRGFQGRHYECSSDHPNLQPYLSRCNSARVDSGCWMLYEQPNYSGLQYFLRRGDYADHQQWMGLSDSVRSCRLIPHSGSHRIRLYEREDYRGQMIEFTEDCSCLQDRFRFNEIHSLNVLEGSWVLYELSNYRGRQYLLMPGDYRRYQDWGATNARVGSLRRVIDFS
Description: as §1, §2, §3, §4
(§6) The amino acid sequences of each 8-mer human αB crystallin peptide immobilized sequentially on 84 pins in a 96-well ELISA plate format are listed on the Y-axis. […]

Sequence	absorbance at λ=450 nm, interaction with γD crystallin
FYLRPPSF [Peptide 24]	maximum absorbances
IAIHHPWI [Peptide 2]	maximum absorbances
HGFISREF [Peptide 56]	maximum absorbances
WIRRPFFP [Peptide 5]	maximum absorbances
SFLRAPSW [Peptide 27]	maximum absorbances
GVLTVNGP [Peptide 71]	maximum absorbances
EFHRKYRI [Peptide 59]	maximum absorbances
LTITSSLS [Peptide 66]	maximum absorbances
SLSPFYLR [Peptide 22]	maximum absorbances
PFFPFHSP [Peptide 7]	maximum absorbances
DQFFGEHL [Peptide 13]	maximum absorbances

test system: bovine βH crystallin; test: Protein pin array interaction with βH crystallin; type: binding; details: unheated βH crystallin; similar maxima with βH crystallin pre-heated at 45° C. for fifteen minutes
Description: as §1, §2, §3, §4, §6

Sequence	absorbance at λ=450 nm, interaction with βH crystallin
FYLRPPSF [Peptide 24]	Maximum absorbances
SPFYLRPP [Peptide 23]	Maximum absorbances
FISREFHR [Peptide 57]	Maximum absorbances
RTIPITRE [Peptide 79]	Maximum absorbances
WIRRPFFP [Peptide 5]	Maximum absorbances
PPSFLRAP [Peptide 26]	Maximum absorbances
RLEKDRFS [Peptide 35]	Maximum absorbances
GVLTVNGP [Peptide 71]	Maximum absorbances
LTITSSLS [Peptide 66]	Maximum absorbances
LKVKVLGD [Peptide 45]	Maximum absorbances
KYRIPADV [Peptide 61]	Maximum absorbances
